We go through one substance from article PMC3078924.

The test concerns the target recombinant ATP synthase subunit β of A. actinomycetemcomitans, as purified (Aggregatibacter actinomycetemcomitans ATCC 700685 (HK1651)). Description: native gel or EMSA; recombinant ATP synthase subunit β on native PAGE, silver stained; three prominent forms. A general note: A gel shift assay detects complexes by their altered migration in electrophoresis.

One may read the stoichiometry N as a count of units in the complex or per binding partner. Consider “recombinant ATP synthase subunit β of A. actinomycetemcomitans, as purified (enzyme)”, for which the stoichiometry N amounted to 3.
